Experimental findings from US20240327530A1 (ICHNOS SCIENCES, published 2024) are described below.

Experiment [1] has as its target T1, Recombinant mouse IL-1RAP Fc fusion protein (Sino Biologicals, catalog no. 52657-M02H) (mouse, UniProt Q61730 21-350).
T1 construct: Bought; not shown: Fc part of the bought fusion protein
T1 sequence: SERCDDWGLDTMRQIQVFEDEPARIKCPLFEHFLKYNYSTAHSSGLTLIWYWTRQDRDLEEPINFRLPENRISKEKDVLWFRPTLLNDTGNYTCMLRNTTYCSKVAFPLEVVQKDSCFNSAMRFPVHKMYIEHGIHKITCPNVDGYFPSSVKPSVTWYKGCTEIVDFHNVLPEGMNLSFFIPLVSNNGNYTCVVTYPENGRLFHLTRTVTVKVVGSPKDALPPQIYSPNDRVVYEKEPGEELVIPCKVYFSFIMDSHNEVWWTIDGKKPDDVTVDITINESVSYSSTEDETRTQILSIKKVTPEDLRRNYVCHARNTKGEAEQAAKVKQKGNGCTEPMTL
Description: SPR, mouse IL-1RAP-Fc captured, Fab as analyte (0.04 to 5 nM). On the procedure: Affinities of the Fab fragments to mouse IL-1RAP were measured as described in Example 1, with the following modifications. Measurements were performed on Series S CM5 sensor chips (BIACORE™ T200, BIACORE™, GE […]®, catalog no. BR100530) coupled with anti-human IgG Fc (BIACORE™, GE […]®, catalog no. BR100839) using a commercial amine coupling kit (BIACORE™, GE […]®, catalog no. BR100050). SPR measurements were performed with commercially available recombinant mouse IL-1RAP Fc fusion protein (Sino Biologicals, catalog no. 52657-M02H). The affinities to mouse IL-1RAP were assessed by immobilizing mouse IL-1RAP-Fc and using Fab fragments as analyte. Around 60 RUs of mouse IL-1RAP Fc fusion protein were captured on fc2 of a Series S CM5 sensor chip coupled with anti-human IgG Fc. Fab fragments were injected in single cycle kinetic at different concentrations ranging from 0.04 to 5 nM, in HBS-EP+ buffer (BIACORE™, GE […]®, catalog no. BR100669) at a flow rate of 30 μl/min for 3 min on fc1 and fc2 (fc1 being used as reference). Dissociation was monitored for 10 min.
On the technique in general: SPR reads the build-up and loss of mass on a sensor chip optically.

Experiment [2] addresses T2, Recombinant cynomolgus monkey IL-1RAP-ECD(S21-E359)-avi-his protein (cynomolgus monkey, UniProt P59822 21-359 (rhesus entry)).
T2 construct: also called cyno IL-1RAP-ECD-Avi-His; recombinant cynomolgus monkey IL-1RAP-avi-his protein
T2 sequence: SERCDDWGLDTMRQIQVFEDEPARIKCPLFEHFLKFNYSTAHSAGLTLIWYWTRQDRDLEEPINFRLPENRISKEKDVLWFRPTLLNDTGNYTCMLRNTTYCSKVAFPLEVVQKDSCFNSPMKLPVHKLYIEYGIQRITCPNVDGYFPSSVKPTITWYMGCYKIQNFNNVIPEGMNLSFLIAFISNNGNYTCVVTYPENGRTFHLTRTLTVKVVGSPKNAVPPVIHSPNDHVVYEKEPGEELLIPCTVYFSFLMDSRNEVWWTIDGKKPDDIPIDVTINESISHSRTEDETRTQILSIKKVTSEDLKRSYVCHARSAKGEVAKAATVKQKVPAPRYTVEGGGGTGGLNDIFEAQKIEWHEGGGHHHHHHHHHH
Put plainly: SPR, IgG1 LALA captured by anti-human Fc, cyno IL-1RAP-avi-his as analyte, 1:1 fit. On the procedure:
(§1) Surface plasmon resonance (SPR) was used to measure the binding affinities of the human IgG1 LALA molecules for human and cynomolgus monkey IL-1RAP. Affinities were measured on a BIACORE™ T200 instrument (BIACORE™, GE […]®) at 25° C. and analyzed with the BIACORE™ T200 Evaluation Software (v3.1). Measurements were performed on Series S CM5 sensor chips (BIACORE™ T200, BIACORE™, GE […]®, catalog no. BR100530) coupled with anti-human IgG Fc (BIACORE™, GE […]®, catalog no. BR100839) using a commercial amine coupling kit (BIACORE™, GE […]®, catalog no. BR100050). SPR measurements were performed with recombinant human IL-1RAP-avi-his protein produced in house (SEQ ID NO. 1) or recombinant cynomolgus monkey IL-1RAP-avi-his protein produced in house (SEQ ID NO. 2). The affinities to human and cynomolgus monkey IL-1RAP were assessed by immobilizing anti-IL-1RAP IgG1 LALA molecules and using IL-1RAP proteins as analyte. Around 150 RU of human IgG1 LALA were captured on fc2 of a Series S CM5 sensor chip coupled with anti-human IgG Fc. Recombinant human IL-1RAP-avi-his protein or recombinant cynomolgus monkey IL-1RAP-avi-his protein was injected in multi cycle kinetic at different concentrations ranging from 0.14 to 100 nM, in HBS-EP+ buffer (BIACORE™, GE […]®, catalog no. BR100669) at a flow rate of 30 μl/min for 3 min on fc1 and fc2 (fc1 being used as reference). Dissociation was monitored for 12 min. After each cycle, the surface was regenerated with 60 μl of regeneration solution provided with anti-human IgG Fc capture kit (BIACORE™, GE […]®, catalog no. BR100839). Experimental data were processed using the 1:1 Langmuir kinetic fitting model. Measurements included zero-concentration samples for referencing. Chi², U- and residual values were used to evaluate the quality of a fit between the experimental data and individual binding models.

Experiment [3] deals with T3, Recombinant human IL-1RAP-ECD(S21-E359)-avi-his protein (human, UniProt Q9NPH3 21-359).
T3 construct: Biotinylated where loaded on streptavidin; also called human IL-1RAP-ECD-Avi-His; recombinant human IL-1RAP-avi-his protein
T3 sequence: T2 sequence with F183L, P273T, T326K
Description: SPR, IgG1 LALA captured by anti-human Fc, human IL-1RAP-avi-his as analyte, 1:1 fit. On the procedure: as §1

For experiment [4], the target named is T4, Recombinant human IL-1RAP Fc fusion protein (Acrobiosystems, catalog no. ILP-H5256) (human, UniProt Q9NPH3 21-359, limits assumed).
T4 construct: Bought; not shown: Fc part of the bought fusion protein
T4 sequence: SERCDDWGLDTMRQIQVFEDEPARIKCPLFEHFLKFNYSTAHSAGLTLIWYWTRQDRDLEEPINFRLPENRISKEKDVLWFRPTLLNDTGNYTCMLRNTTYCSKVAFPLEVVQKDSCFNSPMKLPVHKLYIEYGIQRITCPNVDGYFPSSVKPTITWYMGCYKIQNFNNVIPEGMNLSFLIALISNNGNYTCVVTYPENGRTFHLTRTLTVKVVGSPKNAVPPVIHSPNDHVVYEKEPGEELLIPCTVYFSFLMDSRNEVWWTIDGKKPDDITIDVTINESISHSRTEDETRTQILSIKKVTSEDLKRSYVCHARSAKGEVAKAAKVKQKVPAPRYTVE
Description: SPR, human IL-1RAP-Fc captured, Fab as analyte (0.08 to 50 nM). On the procedure: BR100669) at a flow rate of 30 μl/min for 3 min on fc1 and fc2 (fc1 being used as reference). Dissociation was monitored for 5 min. After each cycle, the surface was regenerated with 60 μl of regeneration solution provided with anti-human IgG Fc capture kit (BIACORE™, GE […]®, catalog no. BR100839) or BiotinCAPture kit (BIACORE™, GE […]®, catalog no. 28920234) respectively. Experimental data were processed using the 1:1 Langmuir kinetic fitting model. Measurements included zero-concentration samples for referencing. Chi², U- and residual values were used to evaluate the quality of a fit between the experimental data and individual binding models. […]

Numbering of substitutions follows the chain as printed. Numbers in names are those of the source.

B1: Anti-IL-1RAP-C3-MP01-A2 Fab (Fab, V domains shown)
VH: EVQLLESGGGLVQPGGSLRLSCAASGFTFAEYAMNWVRQAPGKGLEWVSAISYDGEGTLYADSVKGRFTISRDNSKNTLYLQMNSLRAEDTAVYYCARFRYYTAFDYWGQGTLVTVSS
VL: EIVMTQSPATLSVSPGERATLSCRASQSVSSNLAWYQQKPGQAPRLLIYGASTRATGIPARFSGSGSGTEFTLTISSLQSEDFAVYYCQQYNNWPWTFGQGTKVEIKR
For orientation: Kd means the constant that tells how readily two partners part at equilibrium. B1: the Kd in experiment [1] is 0.68 nM.

B2: Anti-IL-1RAP-C3-MP01-B5 Fab (Fab, V domains shown)
VH: B1 VH with T28I, A30S, E31T, A33G, N35G
VL: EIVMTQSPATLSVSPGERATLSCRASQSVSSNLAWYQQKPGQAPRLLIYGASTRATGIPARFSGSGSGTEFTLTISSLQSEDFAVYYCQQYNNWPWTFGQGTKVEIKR
Consider B2, for which the Kd in experiment [1] is 0.21 nM.

B3: Anti-IL-1RAP-C3-MP02-G2 Fab (Fab, V domains shown)
VH: B1 VH with F29Y, A30D, E31V, Y32A, A33P, N35G
VL: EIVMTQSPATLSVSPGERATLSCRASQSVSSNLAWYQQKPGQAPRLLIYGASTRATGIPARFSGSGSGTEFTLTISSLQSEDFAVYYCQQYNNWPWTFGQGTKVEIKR
Regarding B3, the dissociation constant (Kd) in experiment [1] amounted to 0.32 nM.

B4: Anti-IL-1RAP-C3-MP01-G10 Fab (Fab, V domains shown)
VH: B1 VH with A30S, E31H, A33G, N35S
VL: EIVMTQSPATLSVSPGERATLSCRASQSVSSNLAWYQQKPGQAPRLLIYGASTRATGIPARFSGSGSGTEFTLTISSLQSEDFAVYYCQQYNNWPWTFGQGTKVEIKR
Consider B4, for which the Kd in experiment [1] was 0.21 nM.

B5: Anti-IL-1RAP-C3-MP01-F5 Fab (Fab, V domains shown)
VH: B1 VH with T28P, F29L, A30S, E31N, A33G, N35S
VL: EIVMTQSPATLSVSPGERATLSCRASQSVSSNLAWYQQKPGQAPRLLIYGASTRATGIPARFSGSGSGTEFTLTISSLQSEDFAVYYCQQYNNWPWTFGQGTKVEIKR
On to B5, for which the Kd in experiment [1] came out at 0.28 nM.

B6: Anti-IL-1RAP-C3-MP02-B8 Fab (Fab, V domains shown)
VH: B1 VH with A30E, E31H, Y32S, A33S, M34A, N35G
VL: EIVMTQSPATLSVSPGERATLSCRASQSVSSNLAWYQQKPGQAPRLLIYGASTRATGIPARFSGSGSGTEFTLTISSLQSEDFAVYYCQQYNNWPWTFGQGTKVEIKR
For B6, the Kd in experiment [1] came to 0.49 nM.

B7: Anti-IL-1RAP-C3-MP01-D2 Fab (Fab, V domains shown)
VH: B1 VH with A30S, E31Q, Y32F, A33G, N35T
VL: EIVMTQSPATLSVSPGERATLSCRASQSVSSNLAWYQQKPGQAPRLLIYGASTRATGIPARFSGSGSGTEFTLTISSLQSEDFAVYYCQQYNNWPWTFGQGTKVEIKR
Take B7: the Kd in experiment [1] was determined as 0.22 nM.

B8: Anti-IL-1RAP-C3-MP01-B7 Fab (Fab, V domains shown)
VH: B1 VH with F29L, A30S, E31G, Y32F, A33S, N35S
VL: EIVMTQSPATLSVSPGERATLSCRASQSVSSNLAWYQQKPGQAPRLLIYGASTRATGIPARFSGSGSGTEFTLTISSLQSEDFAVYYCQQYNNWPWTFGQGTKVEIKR
Regarding B8, the Kd in experiment [1] was 0.17 nM.

B9: Anti-IL-1RAP-C3-MP02-F6 Fab (Fab, V domains shown)
VH: B1 VH with A30P, E31D, A33P, M34L, N35G
VL: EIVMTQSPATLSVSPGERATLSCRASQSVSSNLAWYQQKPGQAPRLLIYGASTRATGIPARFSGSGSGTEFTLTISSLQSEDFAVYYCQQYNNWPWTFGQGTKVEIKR
On to B9, for which the Kd in experiment [1] was 0.26 nM.

B10: Anti-IL-1RAP-C3-MP01-A3 Fab (Fab, V domains shown)
VH: B1 VH with T28I, A30S, E31H, A33G, N35S
VL: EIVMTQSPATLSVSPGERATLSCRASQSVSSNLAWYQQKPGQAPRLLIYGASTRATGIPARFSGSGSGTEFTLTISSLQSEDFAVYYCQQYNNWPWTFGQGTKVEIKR
notes: also called Fab clone anti-IL-1RAP-C3-A3
On to B10, for which the dissociation constant (Kd) in experiment [1] was 0.14 nM.

B11: Anti-IL-1RAP-C8-recC IgG1 LALA (antibody, V domains shown)
VH: QVQLVQSGAEVKKPGSSVKVSCKASGSPAEPYAIQWVRQAPGQGLEWMGYIIPSLGGYDYAQKFQGRVTITADESTSTAYMELSSLRSEDTAVYYCARGQTLYDSGRQFDIWGQGTLVTVSS
VL: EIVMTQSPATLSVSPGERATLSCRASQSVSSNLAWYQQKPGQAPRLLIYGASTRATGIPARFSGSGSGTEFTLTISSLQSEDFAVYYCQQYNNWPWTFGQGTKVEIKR
notes: Human IgG1 with L234A/L235A (EU); whether it is the full heavy chain or only VH is not clear; also called ISB 880-C8-recC
A word on the koff: it is a measure of how fast the partners let go of each other. As usually defined, the kon is the second-order rate constant of association. With B11, in experiment [2], the Kd was 0.276 nM, the koff was found to be 0.000236 s⁻¹ and the kon came to 854000 M⁻¹ s⁻¹. In experiment [3], the equilibrium dissociation constant (Kd) amounted to 0.237 nM, the off-rate constant (koff) turned out to be 0.000199 s⁻¹ and the kon worked out at 840000 M⁻¹ s⁻¹.

B12: Anti-IL-1RAP-C8-RecC-ET-IgG1LALA (antibody, V domains shown)
VH: B11 VH with D104E, S105T
VL: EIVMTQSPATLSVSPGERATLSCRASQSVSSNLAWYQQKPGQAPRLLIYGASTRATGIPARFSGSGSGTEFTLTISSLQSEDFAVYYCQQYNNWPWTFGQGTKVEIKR
notes: Human IgG1 LALA; also called ISB 880-C8-recC-ET
Turning to B12, in experiment [2], the dissociation constant Kd is 0.336 nM, the koff came out at 0.000308 s⁻¹ and the on-rate (kon) was 916000 M⁻¹ s⁻¹. Also, in experiment [3], the Kd amounted to 0.278 nM, the dissociation rate constant (koff) is 0.000253 s⁻¹ and the kon was determined as 916000 M⁻¹ s⁻¹.

B13: Anti-IL-1RAP-C8-recC-Fab (Fab, V domains shown)
VH: B11 VH
VL: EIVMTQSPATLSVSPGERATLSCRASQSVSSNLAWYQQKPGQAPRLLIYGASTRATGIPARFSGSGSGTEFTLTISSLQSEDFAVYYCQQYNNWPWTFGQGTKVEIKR
notes: also called Fab clone anti-IL-1RAP-C8-RecC
For B13, in experiment [4], the dissociation constant Kd came out at 0.038 nM.

B14: Anti-IL-1RAP-C8-RecC-AA-IgG1LALA (antibody, V domains shown)
VH: B11 VH with D104A, S105A
VL: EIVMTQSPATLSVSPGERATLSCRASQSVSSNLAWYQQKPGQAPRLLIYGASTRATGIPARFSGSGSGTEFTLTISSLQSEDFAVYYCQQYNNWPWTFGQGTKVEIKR
notes: Human IgG1 LALA; also called ISB 880-C8-recC-AA
In the case of B14, in experiment [2], the Kd was found to be 0.24 nM, the koff is 0.000187 s⁻¹ and the kon was determined as 777000 M⁻¹ s⁻¹. For the same molecule, in experiment [3], the Kd worked out at 0.267 nM, the koff was 0.000169 s⁻¹ and the on-rate (kon) is 634000 M⁻¹ s⁻¹.

B15: Anti-IL-1RAP-C8-RecC-DA-IgG1LALA (antibody, V domains shown)
VH: B11 VH with S105A
VL: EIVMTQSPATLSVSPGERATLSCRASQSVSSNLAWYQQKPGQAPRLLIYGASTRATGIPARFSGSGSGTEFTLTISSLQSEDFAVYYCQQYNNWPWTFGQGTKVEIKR
notes: Human IgG1 LALA; D100/S100a (Kabat) of RecC replaced by DA; also called ISB 880-C8-recC-DA
Consider B15, for which, in experiment [2], the Kd worked out at 0.145 nM, the koff was determined as 0.00019 s⁻¹ and the kon worked out at 1.31e+06 M⁻¹ s⁻¹. Besides, in experiment [3], the dissociation constant Kd was determined as 0.14 nM, the koff was determined as 0.000162 s⁻¹ and the on-rate constant (kon) is 1.16e+06 M⁻¹ s⁻¹.

B16: Anti-IL-1RAP-C8-recB-Fab (Fab, V domains shown)
VH: B11 VH with S27G, A29R, E30R, P31A
VL: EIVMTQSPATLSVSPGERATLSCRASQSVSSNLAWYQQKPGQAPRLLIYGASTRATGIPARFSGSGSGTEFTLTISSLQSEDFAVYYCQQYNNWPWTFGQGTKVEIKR
In the case of B16, in experiment [4], the Kd is 0.052 nM.

B17: Anti-IL-1RAP-C8-RecC-AS-IgG1LALA (antibody, V domains shown)
VH: B11 VH with D104A
VL: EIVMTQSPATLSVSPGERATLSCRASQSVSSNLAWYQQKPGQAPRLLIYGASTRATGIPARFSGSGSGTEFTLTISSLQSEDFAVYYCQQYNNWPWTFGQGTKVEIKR
notes: Human IgG1 LALA; D100/S100a (Kabat) of RecC replaced by AS; also called ISB 880-C8-recC-AS
For the molecule B17, in experiment [2], the dissociation constant Kd stood at 0.254 nM, the koff was determined as 0.00016 s⁻¹ and the kon was 628000 M⁻¹ s⁻¹. Also, in experiment [3], the Kd is 0.287 nM, the off-rate (koff) came out at 0.000161 s⁻¹ and the kon is 561000 M⁻¹ s⁻¹.
